Data: publication PMC3433420
Several values for one entry are separate records, joined by “and”; a condition that tells them apart may be missing. Equal values may be shown once. Read-outs that look alike come from different tables or passages of the source. Blank lines part the entries; values can stand above or below the substance they belong to.

How the values were obtained:
RASA1-NC (Homo sapiens) = RASA1-NC (Homo sapiens) (UniProt P20936); details: cited from earlier work
PIK3R3-NC (Homo sapiens) [1] = biological target: PIK3R3-NC (Homo sapiens) (UniProt Q92569); details: cited from earlier work
ABL2 (Homo sapiens) = ABL2 (Homo sapiens) (UniProt P42684); details: cited from earlier work
ABL2 (Homo sapiens), sequence (P42684 168-268): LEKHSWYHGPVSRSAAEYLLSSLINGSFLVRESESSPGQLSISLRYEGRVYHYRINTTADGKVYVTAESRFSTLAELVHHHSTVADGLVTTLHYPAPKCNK

SHC1-PTB (Homo sapiens) [2] = biological target: SHC1-PTB (Homo sapiens) (UniProt P29353); details: cited from earlier work
SHC1-PTB (Homo sapiens), sequence (P29353 483-583): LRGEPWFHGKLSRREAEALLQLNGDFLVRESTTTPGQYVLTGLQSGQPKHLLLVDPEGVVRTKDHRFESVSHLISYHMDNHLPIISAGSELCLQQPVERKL

PIK3R3-NC (Homo sapiens) [3] = biological target: PIK3R3-NC (Homo sapiens) (UniProt Q92569); details: cited from earlier work; remark: listed apart in the source
SRC (Homo sapiens) = SRC (Homo sapiens) (UniProt P12931); details: cited from earlier work
SYK-NC (Homo sapiens) = SYK-NC (Homo sapiens) (UniProt P43405); details: cited from earlier work
GRB7 (Homo sapiens) = GRB7 (Homo sapiens) (UniProt Q14451); details: cited from earlier work
PIK3R1-NC (Homo sapiens) = PIK3R1-NC (Homo sapiens) (UniProt P27986); details: cited from earlier work
PIK3R1-NC (Homo sapiens), sequence (P27986 328-723): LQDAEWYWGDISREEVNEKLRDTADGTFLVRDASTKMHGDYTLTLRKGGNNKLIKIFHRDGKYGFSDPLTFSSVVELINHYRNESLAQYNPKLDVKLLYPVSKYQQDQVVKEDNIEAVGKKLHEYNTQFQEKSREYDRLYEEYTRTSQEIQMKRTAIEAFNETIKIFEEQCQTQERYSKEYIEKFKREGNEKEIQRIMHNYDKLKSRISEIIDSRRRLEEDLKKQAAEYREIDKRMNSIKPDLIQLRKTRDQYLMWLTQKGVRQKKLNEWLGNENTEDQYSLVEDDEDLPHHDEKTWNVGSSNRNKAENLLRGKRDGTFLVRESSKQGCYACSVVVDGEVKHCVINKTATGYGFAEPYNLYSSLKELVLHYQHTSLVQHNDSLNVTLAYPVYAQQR

ITK (Homo sapiens) = ITK (Homo sapiens) (UniProt Q08881); details: cited from earlier work
ITK (Homo sapiens), sequence (Q08881 234-343): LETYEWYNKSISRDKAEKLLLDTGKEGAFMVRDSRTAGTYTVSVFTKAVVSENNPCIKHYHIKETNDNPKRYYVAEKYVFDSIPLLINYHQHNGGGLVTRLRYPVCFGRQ

BLK (Homo sapiens) = BLK (Homo sapiens) (UniProt P51451); details: cited from earlier work
BLK (Homo sapiens), sequence (P51451 119-225): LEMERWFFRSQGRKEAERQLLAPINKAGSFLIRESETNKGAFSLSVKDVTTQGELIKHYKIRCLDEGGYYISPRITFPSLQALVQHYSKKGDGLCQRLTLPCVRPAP

GRB2 (Homo sapiens) = GRB2 (Homo sapiens) (UniProt P62993); details: cited from earlier work
TEC (Homo sapiens) = TEC (Homo sapiens) (UniProt P42680); details: cited from earlier work
SYK-N (Homo sapiens) = SYK-N (Homo sapiens) (UniProt P43405); details: cited from earlier work
RASA1-N (Homo sapiens) = RASA1-N (Homo sapiens) (UniProt P20936); details: cited from earlier work
RASA1-N (Homo sapiens), sequence (P20936 176-446): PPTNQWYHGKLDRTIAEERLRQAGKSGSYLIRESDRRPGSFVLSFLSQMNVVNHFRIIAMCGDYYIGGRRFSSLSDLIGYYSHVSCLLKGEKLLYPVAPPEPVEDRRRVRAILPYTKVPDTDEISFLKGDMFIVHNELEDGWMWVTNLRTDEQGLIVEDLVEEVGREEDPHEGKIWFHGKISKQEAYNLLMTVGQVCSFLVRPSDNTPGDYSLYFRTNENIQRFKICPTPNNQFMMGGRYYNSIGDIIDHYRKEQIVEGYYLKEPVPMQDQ

FGR (Homo sapiens) = FGR (Homo sapiens) (UniProt P09769); details: cited from earlier work
SHC1-PTB (Homo sapiens) [4] = biological target: SHC1-PTB (Homo sapiens) (UniProt P29353); details: cited from earlier work; remark: listed apart in the source
PLCG2-NC (Homo sapiens) = PLCG2-NC (Homo sapiens) (UniProt P16885); details: cited from earlier work
PLCG2-NC (Homo sapiens), sequence (P16885 527-740): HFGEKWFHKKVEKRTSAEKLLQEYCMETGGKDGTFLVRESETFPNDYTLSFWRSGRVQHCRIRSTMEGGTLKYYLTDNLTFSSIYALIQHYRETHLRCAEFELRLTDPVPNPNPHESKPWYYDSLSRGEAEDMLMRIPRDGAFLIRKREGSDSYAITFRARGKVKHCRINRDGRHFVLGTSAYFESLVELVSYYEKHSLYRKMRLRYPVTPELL

SHC3 (Homo sapiens) = SHC3 (Homo sapiens) (UniProt Q92529); details: cited from earlier work
CRK (Homo sapiens) = CRK (Homo sapiens) (UniProt P46108); details: cited from earlier work
LYN (Homo sapiens) = LYN (Homo sapiens) (UniProt P07948); details: cited from earlier work
LYN (Homo sapiens), sequence (P07948 124-231): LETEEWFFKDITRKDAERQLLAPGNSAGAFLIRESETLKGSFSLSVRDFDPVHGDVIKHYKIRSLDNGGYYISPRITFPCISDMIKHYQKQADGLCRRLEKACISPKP

PIK3R2-N (Homo sapiens) = PIK3R2-N (Homo sapiens) (UniProt O00459); details: cited from earlier work
PIK3R2-N (Homo sapiens), sequence (O00459 325-721): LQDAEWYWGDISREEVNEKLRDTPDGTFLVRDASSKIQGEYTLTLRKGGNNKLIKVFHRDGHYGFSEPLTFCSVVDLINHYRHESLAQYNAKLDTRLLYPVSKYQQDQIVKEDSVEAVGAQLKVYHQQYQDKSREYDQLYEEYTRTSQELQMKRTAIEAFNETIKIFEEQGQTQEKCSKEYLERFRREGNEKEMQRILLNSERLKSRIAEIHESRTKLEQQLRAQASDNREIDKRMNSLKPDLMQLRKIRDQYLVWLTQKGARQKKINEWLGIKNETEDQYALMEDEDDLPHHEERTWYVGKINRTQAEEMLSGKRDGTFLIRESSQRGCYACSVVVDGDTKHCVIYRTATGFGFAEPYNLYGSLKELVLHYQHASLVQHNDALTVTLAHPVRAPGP

SHC1 (Homo sapiens) = SHC1 (Homo sapiens) (UniProt P29353); details: cited from earlier work
CRKL (Homo sapiens) = CRKL (Homo sapiens) (UniProt P46109); details: cited from earlier work
PIK3R1-N (Homo sapiens) = PIK3R1-N (Homo sapiens) (UniProt P27986); details: cited from earlier work
PIK3R1-N (Homo sapiens), sequence (P27986 328-723): as the sequence (P27986 328-723) above

YES1 (Homo sapiens) = YES1 (Homo sapiens) (UniProt P07947); details: cited from earlier work
YES1 (Homo sapiens), sequence (P07947 153-260): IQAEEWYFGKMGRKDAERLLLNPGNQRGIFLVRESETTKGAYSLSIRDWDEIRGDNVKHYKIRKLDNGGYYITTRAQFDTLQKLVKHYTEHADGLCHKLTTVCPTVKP

[5] = biological target: SH2D3A SH2 domain (human) (UniProt Q9BRG2); assay: peptide or protein array; SH2/PTB proteins spotted on aldehyde slides, rhodamine peptide titrated in buffer B (20 mM HEPES, 100 mM KCl, 0.1% Tween-20, 5 mM DTT, pH 7.8), 1 h at room temperature; replicate assays
SH2D3A SH2 domain (human), sequence (Q9BRG2 15-114): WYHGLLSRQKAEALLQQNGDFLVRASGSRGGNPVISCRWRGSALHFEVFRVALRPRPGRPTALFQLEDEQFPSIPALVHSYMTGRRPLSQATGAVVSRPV

[6] = biological target: SH2D1A SH2 domain (human) (UniProt O60880); assay: as above
SRC SH2 domain (human) = SRC SH2 domain (human) (UniProt P12931); assay: as above
[7] = biological target: PLCG1 C-terminal SH2 domain (human); assay: as above
[8] = biological target: PLCG2 tandem SH2 domains (human); assay: as above
[9] = biological target: RASA1 tandem SH2 domains (human); assay: as above
[10] = biological target: PIK3R2 tandem SH2 domains (human) (UniProt O00459); assay: as above
PIK3R2 tandem SH2 domains (human), sequence (O00459 whole entry, the tested form may be a part): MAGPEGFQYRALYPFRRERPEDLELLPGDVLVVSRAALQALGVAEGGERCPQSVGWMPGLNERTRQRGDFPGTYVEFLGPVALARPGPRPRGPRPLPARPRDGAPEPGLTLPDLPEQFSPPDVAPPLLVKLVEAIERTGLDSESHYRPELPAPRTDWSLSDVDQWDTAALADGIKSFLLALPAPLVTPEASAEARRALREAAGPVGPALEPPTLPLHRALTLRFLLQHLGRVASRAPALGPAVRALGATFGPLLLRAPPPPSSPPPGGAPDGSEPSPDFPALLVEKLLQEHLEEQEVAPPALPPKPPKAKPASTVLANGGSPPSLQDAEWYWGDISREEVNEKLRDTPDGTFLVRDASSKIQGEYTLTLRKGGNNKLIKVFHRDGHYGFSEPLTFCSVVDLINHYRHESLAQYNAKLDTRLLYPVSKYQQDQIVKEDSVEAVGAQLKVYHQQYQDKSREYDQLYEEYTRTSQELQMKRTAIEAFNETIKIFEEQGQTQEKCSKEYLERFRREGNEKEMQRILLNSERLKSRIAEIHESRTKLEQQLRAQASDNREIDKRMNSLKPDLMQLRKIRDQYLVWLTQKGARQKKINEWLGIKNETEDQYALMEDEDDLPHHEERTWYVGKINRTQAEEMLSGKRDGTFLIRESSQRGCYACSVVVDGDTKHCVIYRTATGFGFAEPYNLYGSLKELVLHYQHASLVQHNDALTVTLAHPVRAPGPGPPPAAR

HSH2D SH2 domain (human) = HSH2D SH2 domain (human) (UniProt Q96JZ2); assay: as above
VAV2 SH2 domain (human) = VAV2 SH2 domain (human) (UniProt P52735); assay: as above
[11] = biological target: PIK3R3 tandem SH2 domains (human); assay: as above
[12] = biological target: RASA1 N-terminal SH2 domain (human) (UniProt P20936); assay: as above
ITK SH2 domain (human) = ITK SH2 domain (human) (UniProt Q08881); assay: as above
SHF SH2 domain (human) = SHF SH2 domain (human) (UniProt Q7M4L6); assay: as above
[13] = biological target: PIK3R1 tandem SH2 domains (human) (UniProt P27986); assay: as above
PIK3R1 tandem SH2 domains (human), sequence (P27986 whole entry, the tested form may be a part): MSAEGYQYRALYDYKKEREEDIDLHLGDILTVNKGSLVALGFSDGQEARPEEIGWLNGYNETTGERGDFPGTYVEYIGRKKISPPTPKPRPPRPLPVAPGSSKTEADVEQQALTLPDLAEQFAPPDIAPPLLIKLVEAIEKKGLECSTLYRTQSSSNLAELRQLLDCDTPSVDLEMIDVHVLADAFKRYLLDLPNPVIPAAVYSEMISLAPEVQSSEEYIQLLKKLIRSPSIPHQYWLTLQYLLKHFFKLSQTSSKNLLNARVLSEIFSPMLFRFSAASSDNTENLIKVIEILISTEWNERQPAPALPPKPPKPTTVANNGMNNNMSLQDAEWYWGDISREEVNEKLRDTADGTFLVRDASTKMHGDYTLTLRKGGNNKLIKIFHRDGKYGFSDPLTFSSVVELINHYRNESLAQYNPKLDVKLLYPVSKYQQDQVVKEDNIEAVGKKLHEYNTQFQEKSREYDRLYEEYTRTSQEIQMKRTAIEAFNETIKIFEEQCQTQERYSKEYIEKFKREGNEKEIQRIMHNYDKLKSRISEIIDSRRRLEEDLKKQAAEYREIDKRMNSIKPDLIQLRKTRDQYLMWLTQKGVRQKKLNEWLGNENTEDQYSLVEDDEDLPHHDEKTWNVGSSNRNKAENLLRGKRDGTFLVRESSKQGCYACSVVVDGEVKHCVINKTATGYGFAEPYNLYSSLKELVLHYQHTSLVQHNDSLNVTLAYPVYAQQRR

ABL2 SH2 domain (human) = ABL2 SH2 domain (human) (UniProt P42684); assay: as above
ABL2 SH2 domain (human), sequence (P42684 173-263): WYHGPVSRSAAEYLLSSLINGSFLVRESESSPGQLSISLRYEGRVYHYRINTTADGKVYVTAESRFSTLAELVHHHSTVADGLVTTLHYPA

NCK2 SH2 domain (human) = NCK2 SH2 domain (human) (UniProt O43639); assay: as above
[14] = biological target: ErbB3-pY1260 phosphopeptide, rhodamine-labelled (human); assay: fluorescence polarisation; saturation binding in solution; rhodamine-labeled peptide fixed at 10 nM, protein titrated 0.002-10 µM (twelve two-fold dilutions); 20 minutes at room temperature in the dark; assay buffer 20 mM HEPES, 100 mM KCl, 0.1% Tween-20, 5 mM DTT, pH 7.8; apparent KD; assay detection threshold of 20 µM
[15] = biological target: ErbB3-pY1197 phosphopeptide, rhodamine-labelled (human); assay: as above

GRB7 SH2 domain, sequence (Q14451 431-527): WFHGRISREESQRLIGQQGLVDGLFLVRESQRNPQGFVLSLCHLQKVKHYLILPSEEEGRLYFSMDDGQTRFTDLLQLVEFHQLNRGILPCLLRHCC
RASA1-NC (Homo sapiens), sequence (P20936 176-446): as the sequence (P20936 176-446) above

Substance: …pYLRVAPQSd
apparent Kd (screen) (RASA1-NC (Homo sapiens)): 500 nM
apparent Kd (screen) (PIK3R3-NC (Homo sapiens) [1]): 805 nM
apparent Kd (screen) (ABL2 (Homo sapiens)): 214 nM
apparent Kd (screen) (SHC1-PTB (Homo sapiens) [2]): 337 nM
apparent Kd (screen) (PIK3R3-NC (Homo sapiens) [3]): 1110 nM
apparent Kd (screen) (SRC (Homo sapiens)): 381 nM
apparent Kd (screen) (SYK-NC (Homo sapiens)): 380 nM
apparent Kd (screen) (GRB7 (Homo sapiens)): 500 nM
apparent Kd (screen) (PIK3R1-NC (Homo sapiens)): 500 nM
apparent Kd (screen) (ITK (Homo sapiens)): 500 nM
apparent Kd (screen) (BLK (Homo sapiens)): 500 nM
apparent Kd (screen) (GRB2 (Homo sapiens)): 415 nM
apparent Kd (screen) (TEC (Homo sapiens)): 480 nM
apparent Kd (screen) (SYK-N (Homo sapiens)): 294 nM
apparent Kd (screen) (RASA1-N (Homo sapiens)): 708 nM
apparent Kd (screen) (FGR (Homo sapiens)): 618 nM
apparent Kd (screen) (SHC1-PTB (Homo sapiens) [4]): 317 nM
apparent Kd (screen) (PLCG2-NC (Homo sapiens)): 500 nM
apparent Kd (screen) (SHC3 (Homo sapiens)): 1030 nM
apparent Kd (screen) (CRK (Homo sapiens)): 1070 nM
apparent Kd (screen) (LYN (Homo sapiens)): 171 nM
apparent Kd (screen) (PIK3R2-N (Homo sapiens)): 500 nM
apparent Kd (screen) (SHC1 (Homo sapiens)): 777 nM
apparent Kd (screen) (CRKL (Homo sapiens)): 1340 nM
apparent Kd (screen) (PIK3R1-N (Homo sapiens)): 500 nM
apparent Kd (screen) (YES1 (Homo sapiens)): 127 nM

Kd [5]: 1000 nM
Kd [6]: 30900 nM
Kd (SRC SH2 domain (human)): 399 nM
Kd [7]: 1260 nM
Kd [8]: 408 nM and 605 nM and 1530 nM
Kd [9]: 8560 nM
Kd [10]: 653 nM
Kd (HSH2D SH2 domain (human)): 967 nM
Kd (VAV2 SH2 domain (human)): 9500 nM
Kd [11]: 1720 nM and 1180 nM
Kd [12]: 662 nM
Kd (ITK SH2 domain (human)): 723 nM
Kd (SHF SH2 domain (human)): 11900 nM
Kd [13]: 167 nM and 544 nM
Kd (ABL2 SH2 domain (human)): 997 nM and 965 nM
Kd (NCK2 SH2 domain (human)): 10100 nM
Substance: ErbB4 pY1202 phosphopeptide (18-mer), rhodamine-labelled, for protein microarrays

Kd [14]: < 100 nM
Kd [15]: < 100 nM
Substance: GRB7 SH2 domain (from UniProt Q14451 431-527) (domain or fragment)
